Experimental data taken from EP4201483A1, “LPL1 DERIVED IMMUNE ENHANCING PEPTIDES” (priority 2021, dated 2023).

Experiments:
HaCaT cells [1] = assay: S. aureus USA300 invasion / internalization by HaCaT keratinocytes; assay type: cell-based, human; design: key: ⇑: increased invasion and F-actin level; ⇓: decreased invasion and F-actin level; settings: Triggering invasion of USA300 by keratinocytes (HaCaT)
Experimental: (§1) To identify Lpli motifs that interact with the target protein Hsp90α the inventors synthesized peptides of various length covering the whole Lpli protein. All the peptides (> 40) were tested for their ability a) to interact with Hsp90α, and b) to trigger S. aureus internalization by keratinocyte-like HaCaT cells. Table 1: Selected Lpl1 derived peptides with their effect on USA300 invasion in HaCaT keratinocytes, interaction with Hsp90α and F-actin levels in HaCaT cells
The inventors compared the effect on host internalization of L13 and L15 with that of geldanamycin. Geldanamycin is a well-known cell permeable anti-neoplastic drug that competes with ATP for binding to Hsp90, thus inhibiting Hsp90 activity (Gorska et al., 2012). This in turn leads to inactivation, destabilization, and eventual degradation of Hsp90 client proteins, The geldanamycin analog 17AAG decreased F-actin formation upon Hsp90 inhibition (Taiyab & Rao Ch, 2011).

HaCaT cells [2] = assay: F-actin levels in HaCaT cells; assay type: cell-based, human; design: key: ⇑: increased invasion and F-actin level; ⇓: decreased invasion and F-actin level
Experimental: as §1

Molecule	Invasion (HaCaT cells [1])	F-actin levels (HaCaT cells [2])
TAKGHYFVTTFYRNGKLPDEKNYKIEMKNNKIILLDEVKDDKLKQKIENFKFFGQYANL KELRK (peptide, listed as Staphylococcus aureus, 64 aa domain of S.aureus Lpli protein) TAKGHYFVTTFYRNGKLPDEKNYKIEMKNNKIILLDEVKDDKLKQKIENFKFFGQYANLKELRK	⇑	⇑
LNC2: Lpl1 derived peptide, 64 aa, sequence shown as image only (peptide) peptide: DEIVKELRSRYNISTEKSPILKMHIDGDLKGSSVGYRKLEIDFSKRENSKLSVIEFLSYKPAKK	⇑	⇑
